Results from patent US20250000991A1, “NECTIN-4 ANTIBODIES AND ANTIBODY-DRUG CONJUGATES” (Eli Lilly and Company, priority 2023, published 2025).
Positions count from the first letter of the chain named.

B1: Ab1a ADC: Ab1a conjugated as in Formula XI, and with a DAR of 8 (conjugate)
heavy: QVQLVQSGAQVKKPGASVKVSCKASGYTFTGYYIHWVRQAPGQGLEWMGWINPNSGGTNYAQKFQGRVTMTRDTSISTAYMELSRLRSDDTAVYFCAREDWDFDYWGQGTLVTVSSASTKGPSVFPLAPSSKSTSGGTAALGCLVKDYFPEPVTVSWNSGALTSGVHTFPAVLQSSGLYSLSSVVTVPSSSLGTQTYICNVNHKPSNTKVDKRVEPKSCDKTHTCPPCPAPEAAGGPSVFLFPPKPKDTLMISRTPEVTCVVVSVSHEDPEVKFNWYVDGVEVHNAKTKPREEQYNSTYRVVSVLTVLHQDWLNGKEYKCKVSNKALPAPIEKTISKAKGQPREPQVYTLPPSREEMTKNQVSLTCLVKGFYPSDIAVEWESNGQPENNYKTTPPVLDSDGSFFLYSKLTVDKSRWQQGNVFSCSVMHEALHNHYTQKSLSLSPGK
light: EIVLTQSPGTLSLSPGERATLSCRTSQSVSSSYLAWYQQKPGQAPRLLIYGASNRATDIPDRFSGSGSGTDFTLTINRLEPEDFAVYYCQQYGSSPITFGQGTRLEIKRTVAAPSVFIFPPSDEQLKSGTASVVCLLNNFYPREAKVQWKVDNALQSGNSQESVTEQDSKDSTYSLSSTLTLSKADYEKHKVYACEVTHQGLSSPVTKSFNRGEC
B2: Ab3 ADC: Ab3 conjugated as in Formula XI, and with a DAR of 8 (conjugate)
heavy: EVQLVESGGGLVKPGGSLRLSCAASGFNLNHYNMNWVRQAPGKGLEWVSSVSSGGGFRYYADSVRGRFTISRDNAKNSLYLQMNSLRAEDTAVYYCARGAVFHDAFDIWGQGTLVTVSSASTKGPSVFPLAPSSKSTSGGTAALGCLVKDYFPEPVTVSWNSGALTSGVHTFPAVLQSSGLYSLSSVVTVPSSSLGTQTYICNVNHKPSNTKVDKRVEPKSCDKTHTCPPCPAPEAAGGPSVFLFPPKPKDTLMISRTPEVTCVVVSVSHEDPEVKFNWYVDGVEVHNAKTKPREEQYNSTYRVVSVLTVLHQDWLNGKEYKCKVSNKALPAPIEKTISKAKGQPREPQVYTLPPSREEMTKNQVSLTCLVKGFYPSDIAVEWESNGQPENNYKTTPPVLDSDGSFFLYSKLTVDKSRWQQGNVFSCSVMHEALHNHYTQKSLSLSPGK
light: DIQLTQSPSFLSASVGDRVTITCRASQDISSYLAWYQQKPGKAPKLLIYVASTLQSGVPSRFSGSGSGTEFTLTISSLQPEDFATYYCQQINSYPFTFGQGTKVEIKRTVAAPSVFIFPPSDEQLKSGTASVVCLLNNFYPREAKVQWKVDNALQSGNSQESVTEQDSKDSTYSLSSTLTLSKADYEKHKVYACEVTHQGLSSPVTKSFNRGEC
B3: Ab4 ADC: Ab4 conjugated as in Formula XI, and with a DAR of 8 (conjugate)
heavy: QVQLQESGPGLVKPSETLSLTCTVSGGSISGYYWSWIRQPPGKGLEWIGYIYYSGSTNYNPSLKSRVTISVDTSKNQFSLKLSSVTAADTAVYYCARLGIFFDAFDIWGQGTLVTVSSASTKGPSVFPLAPSSKSTSGGTAALGCLVKDYFPEPVTVSWNSGALTSGVHTFPAVLQSSGLYSLSSVVTVPSSSLGTQTYICNVNHKPSNTKVDKRVEPKSCDKTHTCPPCPAPEAAGGPSVFLFPPKPKDTLMISRTPEVTCVVVSVSHEDPEVKFNWYVDGVEVHNAKTKPREEQYNSTYRVVSVLTVLHQDWLNGKEYKCKVSNKALPAPIEKTISKAKGQPREPQVYTLPPSREEMTKNQVSLTCLVKGFYPSDIAVEWESNGQPENNYKTTPPVLDSDGSFFLYSKLTVDKSRWQQGNVFSCSVMHEALHNHYTQKSLSLSPGK
light: B2 light with D28G, V50A, I91F, F96W

Tested on: UM-UC-3 Nectin4 clone F7 xenograft
Test: Tumor xenograft, high nectin-4 expression
Format: in vivo, mice (nu/nu)
Settings: UMUC3 Nectin-4 clone F7 xenograft, single dose 2 mg/kg, day 40
Procedure: In order to test the efficacy of the nectin-4 ADCs of the present disclosure, which have effector null mutations in the Fc region, and to compare to the enfortumab antibody, which has wildtype Fc and in an ADC with the same payload background as the ones of this disclosure, two tumor xenograft models with either high or moderate nectin-4 expression were tested as described. Immune compromised female mice (nu/nu) between 5-8 weeks of age with weight 18-20 grams were implanted unilaterally on the right flank with UM-UC-3 Nectin4 clone F7 cells with high nectin-4 expression. […] The test articles were given at a single dose (2 mg/kg) formulated with 5% dextrose. Tumors were measured biweekly until Day 40.

Molecule	Mean tumor volume [mm^3]
B1	234.79
B2	993.45
B3	928.09

Tested on: MDA-MB-468 xenograft
Test: Tumor xenograft, moderate nectin-4 expression
Format: in vivo, NSG mice
Settings: MDAMB468 xenograft, single dose 2 mg/kg, day 71
Procedure: In a separate study, female NSG mice between 5-6 weeks of age were injected subcutaneously with MDA-MB-468 cells with moderate Nectin-4 expression. When tumors reached approximately 150-250 mm^3; animals were matched by tumor volume into treatment or control groups and dosing initiated (Day 0, n=8 per group). The test articles were given at a single dose (2 mg/kg) formulated with 5% Dextrose. Tumors were measured biweekly until Day 71.
In both models, a 2 mg/kg single dose treatment of either the nectin-4 ADCs (exemplified herein with each of Abs1-8 conjugated as in Formula XI, and with a DAR of 8) or benchmark enfortumab ADC (enfortumab conjugated with Formula XI, and with a DAR of 8) was used. Tumor growth was measured at day 40 for UMUC3 Nectin-4 clone F7 and day 71 for MDAMB468 xenografts.

Molecule	Mean tumor volume [mm^3]
B1	135.24
B2	366.45
B3	343.65
